According to the supplement of paper PMC10567573:

B1: DVL3 (parent)
chain: HPDPAPFCADNPSELPPPMERTGG
B2: SAT2 (parent)
chain: LTEAEGWHFFCFQGEATRKLAGK

Variants of: B1
Test: protein stability index of a GFP-peptide fusion (GPS, HEK-293T) (PSI 1-6); higher = more stable
Conditions: c terminus: a fixed tail appended
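Also: lentivirally expressed fusions sorted by FACS into six bins by GFP to DsRed ratio, PSI derived from sequencing read proportions per bin multiplied by bin number.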

Variant	protein stability index
HPDPAPFCADNPSELPPPMERAGG	3.02
HPDPAPFCADNPSELPPPMERDGG	3.31
HPDPAPFCADNPSELPPPMEREGG	2.88
HPDPAPFCADNPSELPPPMERGGG	2.5
HPDPAPFCADNPSELPPPMERKGG	2.85
HPDPAPFCADNPSELPPPMERLGG	2.94
HPDPAPFCADNPSELPPPMERMGG	2.96
HPDPAPFCADNPSELPPPMERQGG	2.78
HPDPAPFCADNPSELPPPMERRGG	2.58
HPDPAPFCADNPSELPPPMERVGG	2.02
HPDPAPFCADNPSELPPPMERWGG	2.22
HPDPAPFCADNPSELPPPMERTMG	2.62
HPDPAPFCADNPSELPPPMERTRG	2.89
HPDPAPFCADNPSELPPPMERTVG	2.47
HPDPAPFCADNPSELPPPMERTWG	2.07
HPDPAPFCADNPSELPPPMERTGS	3.1

Variants of: B2
Test: as above
Conditions: c terminus: native

Variant	protein stability index
ATEAEGWHFFCFQGEATRKLAGK	2.58
CTEAEGWHFFCFQGEATRKLAGK	2.48
DTEAEGWHFFCFQGEATRKLAGK	3.43
ETEAEGWHFFCFQGEATRKLAGK	3.73
GTEAEGWHFFCFQGEATRKLAGK	4.09
HTEAEGWHFFCFQGEATRKLAGK	1.48
ITEAEGWHFFCFQGEATRKLAGK	1.79
KTEAEGWHFFCFQGEATRKLAGK	2.81
MTEAEGWHFFCFQGEATRKLAGK	2.34
NTEAEGWHFFCFQGEATRKLAGK	3.57
QTEAEGWHFFCFQGEATRKLAGK	3.47
RTEAEGWHFFCFQGEATRKLAGK	2.09
STEAEGWHFFCFQGEATRKLAGK	3.02
TTEAEGWHFFCFQGEATRKLAGK	2.33
VTEAEGWHFFCFQGEATRKLAGK	2.22
LAEAEGWHFFCFQGEATRKLAGK	1.38
LCEAEGWHFFCFQGEATRKLAGK	1.99
LDEAEGWHFFCFQGEATRKLAGK	2.97
LEEAEGWHFFCFQGEATRKLAGK	3.48
LFEAEGWHFFCFQGEATRKLAGK	1.8
LGEAEGWHFFCFQGEATRKLAGK	1.76
LHEAEGWHFFCFQGEATRKLAGK	2.32
LIEAEGWHFFCFQGEATRKLAGK	3.08
LKEAEGWHFFCFQGEATRKLAGK	2.14
LMEAEGWHFFCFQGEATRKLAGK	2.71
LNEAEGWHFFCFQGEATRKLAGK	2.75
LPEAEGWHFFCFQGEATRKLAGK	2.12

Variant	protein stability index
LQEAEGWHFFCFQGEATRKLAGK	2.48
LREAEGWHFFCFQGEATRKLAGK	2.14
LSEAEGWHFFCFQGEATRKLAGK	2.34
LWEAEGWHFFCFQGEATRKLAGK	1.11
LYEAEGWHFFCFQGEATRKLAGK	1.56
LTAAEGWHFFCFQGEATRKLAGK	1.79
LTCAEGWHFFCFQGEATRKLAGK	1.89
LTDAEGWHFFCFQGEATRKLAGK	2.49
LTFAEGWHFFCFQGEATRKLAGK	1.64
LTGAEGWHFFCFQGEATRKLAGK	1.78
LTHAEGWHFFCFQGEATRKLAGK	1.67
LTIAEGWHFFCFQGEATRKLAGK	3.97
LTKAEGWHFFCFQGEATRKLAGK	1.25
LTLAEGWHFFCFQGEATRKLAGK	1.58
LTMAEGWHFFCFQGEATRKLAGK	2.56
LTNAEGWHFFCFQGEATRKLAGK	1.48
LTPAEGWHFFCFQGEATRKLAGK	1.74
LTQAEGWHFFCFQGEATRKLAGK	1.82
LTRAEGWHFFCFQGEATRKLAGK	1.43
LTSAEGWHFFCFQGEATRKLAGK	1.75
LTTAEGWHFFCFQGEATRKLAGK	2.11
LTWAEGWHFFCFQGEATRKLAGK	1.37
LTYAEGWHFFCFQGEATRKLAGK	2.18
LTECEGWHFFCFQGEATRKLAGK	1.45
LTEDEGWHFFCFQGEATRKLAGK	2.37
LTEEEGWHFFCFQGEATRKLAGK	3.14
LTEFEGWHFFCFQGEATRKLAGK	1.31

Variant	protein stability index
LTEGEGWHFFCFQGEATRKLAGK	2.68
LTEHEGWHFFCFQGEATRKLAGK	3
LTEKEGWHFFCFQGEATRKLAGK	2.61
LTELEGWHFFCFQGEATRKLAGK	2.14
LTEMEGWHFFCFQGEATRKLAGK	1.66
LTENEGWHFFCFQGEATRKLAGK	2.87
LTEPEGWHFFCFQGEATRKLAGK	3.18
LTEQEGWHFFCFQGEATRKLAGK	2.36
LTEREGWHFFCFQGEATRKLAGK	2.17
LTESEGWHFFCFQGEATRKLAGK	2.66
LTETEGWHFFCFQGEATRKLAGK	2.9
LTEVEGWHFFCFQGEATRKLAGK	1.64
LTEWEGWHFFCFQGEATRKLAGK	2.27
LTEYEGWHFFCFQGEATRKLAGK	1.56
LTEAAGWHFFCFQGEATRKLAGK	2.17
LTEACGWHFFCFQGEATRKLAGK	1.26
LTEAFGWHFFCFQGEATRKLAGK	1.79
LTEAHGWHFFCFQGEATRKLAGK	1.85
LTEAIGWHFFCFQGEATRKLAGK	3.25
LTEAKGWHFFCFQGEATRKLAGK	1.18
LTEALGWHFFCFQGEATRKLAGK	1.29
LTEAMGWHFFCFQGEATRKLAGK	4.97
LTEANGWHFFCFQGEATRKLAGK	1.73
LTEAPGWHFFCFQGEATRKLAGK	1.86
LTEAQGWHFFCFQGEATRKLAGK	2.16
